Laboratory results published in IntAct's records for PubMed 29039417.

B1: BBSome complex member BBS1 (Homo sapiens), Q8NFJ9 (parent)
chain: MAAASSSDSDACGAESNEANSKWLDAHYDPMANIHTFSACLALADLHGDGEYKLVVGDLGPGGQQPRLKVLKGPLVMTESPLPALPAAAATFLMEQHEPRTPALALASGPCVYVYKNLRPYFKFSLPQLPPNPLEQDLWNQAKEDRIDPLTLKEMLESIRETAEEPLSIQSLRFLQLELSEMEAFVNQHKSNSIKRQTVITTMTTLKKNLADEDAVSCLVLGTENKELLVLDPEAFTILAKMSLPSVPVFLEVSGQFDVEFRLAAACRNGNIYILRRDSKHPKYCIELSAQPVGLIRVHKVLVVGSTQDSLHGFTHKGKKLWTVQMPAAILTMNLLEQHSRGLQAVMAGLANGEVRIYRDKALLNVIHTPDAVTSLCFGRYGREDNTLIMTTRGGGLIIKILKRTAVFVEGGSEVGPPPAQAMKLNVPRKTRLYVDQTLREREAGTAMHRAFQTDLYLLRLRAARAYLQALESSLSPLSTTAREPLKLHAVVQGLGPTFKLTLHLQNTSTTRPVLGLLVCFLYNEALYSLPRAFFKVPLLVPGLNYPLETFVESLSNKGISDIIKVLVLREGQSAPLLSAHVNMPGSEGLAAA
partner: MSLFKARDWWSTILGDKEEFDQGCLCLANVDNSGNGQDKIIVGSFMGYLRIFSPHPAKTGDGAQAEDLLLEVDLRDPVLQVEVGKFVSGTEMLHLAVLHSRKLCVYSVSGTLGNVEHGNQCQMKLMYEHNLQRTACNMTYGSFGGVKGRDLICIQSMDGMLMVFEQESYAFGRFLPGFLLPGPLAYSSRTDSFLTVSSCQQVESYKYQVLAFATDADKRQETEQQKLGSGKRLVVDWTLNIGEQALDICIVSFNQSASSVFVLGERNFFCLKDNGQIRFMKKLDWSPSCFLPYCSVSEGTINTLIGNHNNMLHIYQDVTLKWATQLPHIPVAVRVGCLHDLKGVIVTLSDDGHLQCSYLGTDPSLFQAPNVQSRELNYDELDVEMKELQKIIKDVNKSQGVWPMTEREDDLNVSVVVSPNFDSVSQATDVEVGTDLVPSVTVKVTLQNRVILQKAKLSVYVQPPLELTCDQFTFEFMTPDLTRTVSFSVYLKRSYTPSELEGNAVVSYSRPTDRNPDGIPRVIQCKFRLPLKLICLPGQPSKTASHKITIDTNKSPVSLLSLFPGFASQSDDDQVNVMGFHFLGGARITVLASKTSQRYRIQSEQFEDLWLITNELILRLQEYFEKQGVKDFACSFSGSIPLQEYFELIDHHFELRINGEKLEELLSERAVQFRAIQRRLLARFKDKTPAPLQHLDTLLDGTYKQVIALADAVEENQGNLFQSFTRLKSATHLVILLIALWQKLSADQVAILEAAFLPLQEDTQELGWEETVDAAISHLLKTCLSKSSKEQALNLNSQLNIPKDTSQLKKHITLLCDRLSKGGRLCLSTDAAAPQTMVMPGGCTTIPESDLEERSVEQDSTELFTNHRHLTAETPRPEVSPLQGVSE

Variants of: B1
Details: with pthb1_human BBS9, Q3SYG4

Row | effect of a mutation on the interaction | Variant
1 | with no effect | G543A
2 | with no effect | G543E
3 | with no effect | G543K
4 | with no effect | T550K
5 | with no effect | T550E
6 | with no effect | T550A
7 | disrupting interaction strength | Y528K
8 | with no effect | S554A
9 | with no effect | P542A
10 | with no effect | P542E
11 | disrupting interaction strength | P542K
12 | with no effect | F534E
13 | with no effect | F534A
14 | with no effect | F534K
15 | with no effect | P547E
16 | with no effect | P547K
17 | with no effect | P547A
18 | disrupting interaction strength | L530R
19 | disrupting interaction strength | L530T
20 | disrupting interaction strength | L530N
21 | disrupting interaction strength | L530A
22 | disrupting interaction strength | L530K
23 | disrupting interaction strength | L530V
24 | disrupting interaction strength | L530Q
25 | disrupting interaction strength | L530E
26 | disrupting interaction strength | L530D
27 | with no effect | K536E

Row | effect of a mutation on the interaction | Variant
28 | with no effect | K536A
29 | with no effect | Y546A
30 | with no effect | Y546K
31 | disrupting interaction strength | Y546E
32 | with no effect | F551K
33 | with no effect | F551A
34 | with no effect | F551E
35 | disrupting interaction strength | V552E
36 | disrupting interaction strength | V552K
37 | with no effect | V552A
38 | with no effect | A533E
39 | with no effect | A533K
40 | with no effect | R532K
41 | with no effect | R532E
42 | with no effect | R532A
43 | with no effect | E549A
44 | with no effect | E549K
45 | with no effect | N545A
46 | with no effect | N545E
47 | with no effect | N545K
48 | disrupting interaction strength | V537E
49 | with no effect | V537A
50 | disrupting interaction strength | V537K
51 | with no effect | L544K
52 | with no effect | L544E
53 | with no effect | L544A
54 | with no effect | E553K

Row | effect of a mutation on the interaction | Variant
55 | with no effect | E553A
56 | with no effect | P531K
57 | with no effect | P531E
58 | with no effect | P531A
59 | with no effect | S529A
60 | with no effect | S529E
61 | with no effect | S529K
62 | with no effect | P538A
63 | disrupting interaction strength | P538L
64 | with no effect | P538K
65 | with no effect | P538E
66 | with no effect | F535A
67 | with no effect | F535E
68 | with no effect | F535K
69 | disrupting interaction strength | L539E
70 | disrupting interaction strength | L539A
71 | disrupting interaction strength | L539K
72 | disrupting interaction strength | L540K
73 | with no effect | L540A
74 | disrupting interaction strength | L540E
75 | with no effect | V541K
76 | with no effect | V541E
77 | with no effect | V541A
78 | disrupting interaction strength | L548E
79 | with no effect | L548K
80 | with no effect | L548A

Variants of: B1
Details: with pthb1_human BBS9, Q3SYG4
Remark: another data set of the same source

Row | effect of a mutation on the interaction | Variant
81 | disrupting interaction strength | Y546K

Variants of: B1
Details: with pthb1_human BBS9, Q3SYG4
Remark: another data set of the same source

Row | effect of a mutation on the interaction | Variant
82 | with no effect | L548E
